Patent US20250282887A1 (Amgen, published 2025)
Numbering of substitutions follows the chain as printed.

T1: human MAGEB1 (human, UniProt P43366 1-347)
T1 construct: whole, on cells; Transfected into CHO cells with Myc/DDK tags
T1 sequence (looked up): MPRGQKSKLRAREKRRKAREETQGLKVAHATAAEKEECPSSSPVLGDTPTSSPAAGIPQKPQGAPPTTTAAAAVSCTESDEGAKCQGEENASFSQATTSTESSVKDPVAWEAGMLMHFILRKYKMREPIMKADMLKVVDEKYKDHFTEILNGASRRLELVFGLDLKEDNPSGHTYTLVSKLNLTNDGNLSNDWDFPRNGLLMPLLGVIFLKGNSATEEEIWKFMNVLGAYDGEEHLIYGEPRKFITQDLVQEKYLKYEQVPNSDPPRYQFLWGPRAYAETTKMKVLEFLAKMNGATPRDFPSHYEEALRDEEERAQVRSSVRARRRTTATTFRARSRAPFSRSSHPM

T2: Human MAGEB2 (Melanoma-associated antigen B2) (human, UniProt O15479 1-319)
T2 construct: Intracellular antigen detected by IHC in FFPE material: CHO cells transfected with human MAGEB2 (mCherry vector with Myc/DDK tags, or ORF without tags)
T2 sequence: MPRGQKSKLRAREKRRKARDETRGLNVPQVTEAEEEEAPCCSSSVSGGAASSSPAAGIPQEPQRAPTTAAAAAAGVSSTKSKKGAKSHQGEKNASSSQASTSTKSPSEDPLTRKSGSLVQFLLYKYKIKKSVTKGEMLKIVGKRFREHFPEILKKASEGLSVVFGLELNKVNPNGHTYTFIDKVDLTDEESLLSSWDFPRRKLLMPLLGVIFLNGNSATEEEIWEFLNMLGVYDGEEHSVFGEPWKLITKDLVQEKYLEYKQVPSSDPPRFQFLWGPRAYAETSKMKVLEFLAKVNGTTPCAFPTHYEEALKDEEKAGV

B1: 1I14 (antibody, V domains shown)
VH: QSVEESGGRLVTPGTPLTLTCTISGFSLSSYAMSWVRQAPGKGLEWIGSIGGGGSAVYASWAKGRFTISKTSTTVDLRITSPTTEDTAMYFCGRGFYSIDLWGPGTLVTVSS
VL: DVVMTQTPASVEATVGGTVTIKCQSSQSVYDNNALAWYQQNAGQRPRLLIYGASTLASGVPSRFSASGSGTEFTLTISDLECADAATYYCQCTYYVSSYQNDFGGGTEVVVKG
notes: also called MAGE-B2 (1i14)
B2: 1C3 (antibody, V domains shown)
VH: QSLEESGGGLVQPEGSLTLTCTAFGVTLTNYYICWVRQAPGKGLEWVGCIDNANGRTYYASWAKGRFTISKTSSTTGTLQMTSLTAADTATYFCARSLATPLWGPGTLVTVSS
VL: DIVMTQTPSSVEAAVGGTVTIKCQASQNISSYLAWYQQKPGQPPKLLIYRASTLASGVPSRFKGSGSGTQFTLTISDLECADAATYYCQSYDDSRSSNFFYAFGGGTEVVVKG
notes: also called MAGE-B2 (IC3); anti-MAGEB2 antibody 1C3
B3: 4G17 (antibody, IgG1, V domains shown)
VH: B2 VH with F24S, T29S, V47I, A53V
VL: DIVMTQTPASVEAAVGGTVTIKCQASQNIDSYLAWYQQKPGQPPKLLIYRASTLASGVPSRFKGSGSGTEFTLTISDLECADAATYYCQSYDDSRSSSFFYGFGGGTEVVVK
notes: Rabbit monoclonal IgG1; Tested as supernatant and as small batch purified antibody; also called MAGE-B2 (4G17); anti-MAGEB2 antibody 4G17
B4: 1J15 (antibody, IgG1, V domains shown)
VH: B2 VH with V26F, T29N, V47I, G48A, G77V, A99S
VL: B3 VL with N28S, D30S, A34S, K63R, E70Q, R95S, S96D, S97N, S98N, K112R
notes: Rabbit monoclonal IgG1; Tested as supernatant and as small batch purified antibody; also called MAGE-B2 (IJ15); anti-MAGEB2 antibody 1J15

What follows are binders tested against T3, human MAGEA12 (human, UniProt P43365 1-314) (assay: IHC, FFPE CHO cells transfected with human MAGEA12).
T3 construct: whole, on cells; FFPE cell pellets
T3 sequence (P43365 whole entry): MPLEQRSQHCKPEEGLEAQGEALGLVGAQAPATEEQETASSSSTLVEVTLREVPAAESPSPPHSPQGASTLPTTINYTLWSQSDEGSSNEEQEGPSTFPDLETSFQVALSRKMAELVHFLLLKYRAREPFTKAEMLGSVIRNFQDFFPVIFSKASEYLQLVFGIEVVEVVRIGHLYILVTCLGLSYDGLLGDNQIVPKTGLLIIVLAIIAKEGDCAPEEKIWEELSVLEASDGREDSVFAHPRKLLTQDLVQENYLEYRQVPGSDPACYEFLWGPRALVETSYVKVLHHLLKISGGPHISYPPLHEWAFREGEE
Excerpt: (§1) Negative control cells included parental Chinese hamster ovary (CHO) cells, CHO cells stably transfected with mCherry Vector Control (minus Myc/DDK tags), CHO cells stably transfected with mCherry-human DCAF4L2 (plus Myc/DDK tags). The cross-reactivity control cells included CHO cells transfected with mCherry Vector Control (plus Myc/DDK tags) with one of the human MAGE-B or MAGE-A family members (MAGEA1, MAGEA2, MAGEA3, MAGEA4, MAGEA5, MAGEA6, MAGEA8, MAGEA9, MAGEA11, MAGEA12, MAGEB1, MAGEB3, MAGEB4, MAGEB5, MAGEB6, MAGEB10, MAGEB16, MAGEB17, MAGEB18). Positive control cell lines included CHO cells transfected with mCherry Vector (plus Myc/DDK tags) with human MAGE-B2 or CHO cells transfected with mCherry Vector (open reading frame (ORF); minus Myc/DDK tags) with human MAGEB2, and thirteen human cancer cell lines with known endogenous RNA expression level of MAGEB2 (U266B1, T98G, KMM-1, U20S, CFPAC-1, SCaBER, UACC-257, CFPAC-1, VMRC-LCD, NCI-H1703, UM-UC-3, NCI-H1395, NCIH82).
(§2) FFPE samples were sectioned at 4 μm and mounted on positive charged glass slides. After mounting, paraffin sections were air-dried at room temperature. FFPE TMA samples were received as freshly sectioned and mounted on glass slides. The fully automated IHC assay was performed on a Discovery Ultra Stainer (Ventana Medical Systems, Tucson, AZ) using Ventana Anti-Rabbit HQ (cat #760-4815), Ventana Anti-HQ HRP (cat #760-4820), and Ventana Antibody Diluent with Casein (cat #760-219) (Ventana Medical Systems, Tucson, AZ). The slides were baked on the Discovery Ultra Stainer at 60° C. for 8 minutes, de-paraffinized with Ventana Discovery wash (cat #950-510) for 3 cycles (8 minutes each) at 69° C., and underwent cell conditioning (target retrieval) at 95° C. for 16 minutes (for cell arrays) or 32 minutes (tissues or TMAs) in CC1 buffer (cat #950-500). Following this, slides were incubated with Background Sniper (cat #BS966M, Biocare Medical, Pacheco, CA) in a Ventana Option Prep kit (cat #771-751) for 28 minutes, incubated with CM inhibitor (a part of the Ventana DAB kit cat #760-159) for 12 minutes, and incubated for 1 h at RT with MAGE-B2 antibody diluted with Ventana diluent with Casein in a Ventana Prep kit (cat #770-001) (working concentration at 0.1 μg/ml for cell pellet, or 1-5 ug/ml for tissues) or with a matched concentration of isotype control Rabbit IgG1 antibody.
B1: no binding (tested: 0.1 µg/ml). B2: no binding (tested: 0.1 µg/ml). B3: no binding (tested: 0.1 µg/ml). B4: no binding (tested: 0.1 µg/ml).

Each binder was assayed against T1, human MAGEB1 (assay: IHC, FFPE CHO cells transfected with human MAGEB1).
Excerpt: as §1, §2
B1: no binding (tested: 0.1 µg/ml). B2: no binding (tested: 0.1 µg/ml). B3: no binding (tested: 0.1 µg/ml). B4: no binding (tested: 0.1 µg/ml).

These binders were tested against T2, Human MAGEB2 (Melanoma-associated …) (assay: IHC on FFPE T98G cells (endogenous MAGEB2)).
Protocol: as §2, with “antibody. Following this, slides were incubated with the Ventana Anti-Rabbit HQ (cat #760-4815) for 28 minutes at RT, Ventana Anti-HQ HRP (cat #760-4820) for 28 minutes at RT, and signals detected with Ventana DAB chromogen kit (cat #760-159) for 5 minutes at RT. Slides were counterstained with Ventana Hematoxylin II (cat #5266726001) for 8 minutes and Ventana Bluing reagent (cat #526676900) for 4 minutes. Slides were coverslipped and digitized using an Aperio AT2 scanner (Leica Biosystems Inc, Buffalo Grove, IL).” for “antibody.”
In the case of B1, the “IHC % Frequency” value is reported as 70% and the “IHC Intensity” value is reported as 2. For B2, the “IHC % Frequency” value was 70% and the “IHC Intensity” value was 2. For B3, the “IHC % Frequency” value was 70% and the “IHC Intensity” value was 2. In the case of B4, the “IHC % Frequency” value is reported as 70% and the “IHC Intensity” value is reported as 1.
